Measurements published in patent publication US20020160403.

Assays:
[1] = biological target: PHAS-I
[2] = biological target: FLAG-huBUB3 protein fusion (plasmid p322-1)
[3] = biological target: huBUB3 protein (untagged; expression plasmid p291-2, ~2.7 kb variant)
Chain of huBUB3 protein (untagged; expression plasmid p291-2, ~2.7 kb variant) (chain, as listed by the source mutant): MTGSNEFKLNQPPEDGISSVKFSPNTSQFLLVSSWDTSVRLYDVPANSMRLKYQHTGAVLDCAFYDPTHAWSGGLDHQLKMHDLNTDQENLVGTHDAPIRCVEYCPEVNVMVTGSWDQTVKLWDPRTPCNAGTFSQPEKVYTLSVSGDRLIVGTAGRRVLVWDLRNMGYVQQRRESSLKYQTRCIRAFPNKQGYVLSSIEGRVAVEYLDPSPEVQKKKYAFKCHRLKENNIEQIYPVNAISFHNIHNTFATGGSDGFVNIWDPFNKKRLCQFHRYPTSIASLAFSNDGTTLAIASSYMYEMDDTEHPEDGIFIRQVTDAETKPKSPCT

Chain of FLAG-huBUB3 protein fusion (plasmid p322-1) (chain, as listed by the source): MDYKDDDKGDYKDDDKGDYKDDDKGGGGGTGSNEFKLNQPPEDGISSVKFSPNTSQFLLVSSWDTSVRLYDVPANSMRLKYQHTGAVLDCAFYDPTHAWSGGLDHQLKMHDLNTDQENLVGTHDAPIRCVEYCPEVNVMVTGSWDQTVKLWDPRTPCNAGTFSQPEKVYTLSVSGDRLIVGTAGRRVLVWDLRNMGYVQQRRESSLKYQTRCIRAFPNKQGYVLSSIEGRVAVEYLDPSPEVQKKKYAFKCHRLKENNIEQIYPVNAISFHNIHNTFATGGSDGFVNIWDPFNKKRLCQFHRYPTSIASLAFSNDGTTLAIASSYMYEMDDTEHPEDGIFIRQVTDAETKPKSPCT

Protein | in vitro kinase activity towards test proteins [1] | phosphorylation in kinase reactions [2] | huBUB1 auto-phosphorylation [3] | phosphorylation in kinase reactions [3]
huBUB1 protein (plasmid p337-50) (protein) MDTPENVLQMLEAHMQSYKGNDPLGEWERYIQWVEENFPENKEYLITLLEHLMKEFLDKKKYHNDPRFISYCLKFAEYNSDLHQFFEFLYNHGIGTLSSPLYIAWAGHLEAQGELQHASAVLQRGIQNQAEPREFLQQQYRLFQTRLTETHLPAQARTSEPLHNVQVLNQMITSKSNPGNNMACISKNQGSELSGVISSACDKESNMERRVITISKSEYSVHSSLASKVDVEQVVMYCKEKLIRGESEFSFEELRAQKYNQRRKHEQWVNEDRHYMKRKEANAFEEQLLKQKMDELHKKLHQVVETSHEDLPASQERSEVNPARMGPSVGSQQELRAPCLPVTYQQTPVNMEKNPREAPPVVPPLANAISAALVSPATSQSIAPPVPLKAQTVTDSMFAVASKDAGCVNKSTHEFKPQSGAEIKEGCETHKVANTSSFHTTPNTSLGMVQATPSKVQPSPTVHTKEALGFIMNMFQAPTLPDISDDKDEWQSLDQNEDAFEAQFQKNVRSSGAWGVNKIISSLSSAFHVFEDGNKENYGLPQPKNKPTGARTFGERSVSRLPSKPKEEVPHAEEFLDDSTVWGIRCNKTLAPSPKSPGDFTSAAQLASTPFHKLPVESVHILEDKENVVAKQCTQATLDSCEENMVVPSRDGKFSPIQEKSPKQALSSHMYSASLLRLSQPAAGGVLTCEAELGVEACRLTDTDAAIAEDPPDAIAGLQAEWMQMSSLGTVDAPNFIVGNPWDDKLIFKLLSGLSKPVSSYPNTFEWQCKLPAIKPKTEFQLGSKLVYVHHLLGEGAFAQVYEATQGDLNDAKNKQKFVLKVQKPANPWEFYIGTQLMERLKPSMQHMFMKFYSAHLFQNGSVLVGELYSYGTLLNAINLYKNTPEKVMPQGLVISFAMRMLYMIEQVHDCEIIHGDIKPDNFILGNGFLEQDDEDDLSAGLALIDLGQSIDMKLFPKGTIFTAKCETSGFQCVEMLSNKPWNYQIDYFGVAATVYCMLFGTYMKVKNEGGECKPEGLFRRLPHLDMWNEFFHVMLNIPDCHHLPSLDLLRQKLKKVFQQHYTNKIRALRNRLIVLLLECKRSRK | identified PHAS-I as an in vitro substrate of the huBUB1 kinase | – | – | –
HA-huBUB1 (protein) MDTPENVLQMLEAHMQSYKGNDPLGEWERYIQWVEENFPENKEYLITLLEHLMKEFLDKKKYHNDPRFISYCLKFAEYNSDLHQFFEFLYNHGIGTLSSPLYIAWAGHLEAQGELQHASAVLQRGIQNQAEPREFLQQQYRLFQTRLTETHLPAQARTSEPLHNVQVLNQMITSKSNPGNNMACISKNQGSELSGVISSACDKESNMERRVITISKSEYSVHSSLASKVDVEQVVMYCKEKLIRGESEFSFEELRAQKYNQRRKHEQWVNEDRHYMKRKEANAFEEQLLKQKMDELHKKLHQVVETSHEDLPASQERSEVNPARMGPSVGSQQELRAPCLPVTYQQTPVNMEKNPREAPPVVPPLANAISAALVSPATSQSIAPPVPLKAQTVTDSMFAVASKDAGCVNKSTHEFKPQSGAEIKEGCETHKVANTSSFHTTPNTSLGMVQATPSKVQPSPTVHTKEALGFIMNMFQAPTLPDISDDKDEWQSLDQNEDAFEAQFQKNVRSSGAWGVNKIISSLSSAFHVFEDGNKENYGLPQPKNKPTGARTFGERSVSRLPSKPKEEVPHAEEFLDDSTVWGIRCNKTLAPSPKSPGDFTSAAQLASTPFHKLPVESVHILEDKENVVAKQCTQATLDSCEENMVVPSRDGKFSPIQEKSPKQALSSHMYSASLLRLSQPAAGGVLTCEAELGVEACRLTDTDAAIAEDPPDAIAGLQAEWMQMSSLGTVDAPNFIVGNPWDDKLIFKLLSGLSKPVSSYPNTFEWQCKLPAIKPKTEFQLGSKLVYVHHLLGEGAFAQVYEATQGDLNDAKNKQKFVLKVQKPANPWEFYIGTQLMERLKPSMQHMFMKFYSAHLFQNGSVLVGELYSYGTLLNAINLYKNTPEKVMPQGLVISFAMRMLYMIEQVHDCEIIHGDIKPDNFILGNGFLEQDDEDDLSAGLALIDLGQSIDMKLFPKGTIFTAKCETSGFQCVEMLSNKPWNYQIDYFGVAATVYCMLFGTYMKVKNEGGECKPEGLFRRLPHLDMWNEFFHVMLNIPDCHHLPSLDLLRQKLKKVFQQHYTNKIRALRNRLIVLLLECKRSRK | – | only HA-huBUB1 auto-phosphorylation was observed in kinase reactions containing these proteins | did not reproducibly stimulate or inhibit huBUB1 auto-phosphorylation | only HA-huBUB1 auto-phosphorylation was observed in kinase reactions containing these proteins
